Results published in patent US20260193317A1, “COMBINATION THERAPY WITH ACTRIIB RECEPTOR VARIANTS AND GLP-1 AGONISTS” (35PHARMA Inc., priority 2023, published 2026).
Like-named read-outs stand apart in the source and are kept apart here.

What was measured:
[1] = Single subcutaneous injection in CD-1 mice: body weight; format: in vivo; details: CD-1 male mice, single s.c. injection; P1229 50 mg/kg, semaglutide 2 mg/kg
[2] = Single-injection body weight gain in wild-type mice; format: in vivo; details: single 25 mg/kg subcutaneous injection, after 4 days, vs vehicle
Description: To investigate the target engagement of exemplary ActRIIB-ECD polypeptide constructs in vivo, mice (n=6/group) were injected with given agents (25 mg/kg, subcutaneous injection), and sacrificed after 4 days to assess body weight gain.

DIO mice = test: Body composition in high fat diet mice, alone and in combination with incretin mimetics; format: in vivo
Description: Experiments were performed in vivo to investigate the potential for additive or synergistic effects between exemplary ActRIIB-ECD polypeptide constructs and incretin mimetics.

[3] = test system: diet-induced obese (DIO) mice; test: Body composition and metabolism in diet-induced obese (DIO) mice; format: in vivo
Description: Experiments were performed to assess the effects of P1229 on body composition and metabolism in diet-induced obese (DIO) mice. DIO mice were purchased from Jackson Laboratories (#380050). Briefly, mice were fed a high-fat diet (HFD, 60% kcal from fat) from 6 weeks of age until 22 weeks of age (total of 16 weeks on the HFD). […] After 3 weeks of treatments, some animals were sacrificed and scanned by EchoMRI […] (FIGS. 11A-F), while others were sacrificed for tissue collection and RNA analysis. Animals were maintained on the HFD throughout the acclimatization and treatment periods. The murine version of bimagrumab used for these experiments comprises the heavy chain amino acid sequence of SEQ ID NO: 376 and the light chain sequence of SEQ ID NO: 377.

[4] = mouse, in vivo, sc
Description: Evaluation of pharmacokinetic profiles.
To determine the concentration of P1229 in mouse serum samples, a 96-well plate was coated 1 h at RT with a solution of anti-ectodomain antibody (1 μg/mL in carbonate buffer, 100 μL/well). The plate was then washed three times with buffer (Biolegend #421601). Blocking buffer (1% BSA, 0.05% tween-20 in TBS, 300 μL/well) was added to each well and the plate was incubated for 1 hour at RT with shaking at 300 rpm. The plate was washed three times and Standards, QCs and sample were diluted in assay diluent (1% BSA, 0.05% tween-20 in TBS, 100 μL/well) and loaded in duplicate on the plate for 1 h30 at RT with shaking at 300 rpm. The plate was washed three times and a solution of anti-human Fc antibody conjugated to HRP (Southern Biotech #2049-05, diluted 1 in 20,000 in assay diluent, 100 μL/well) was added to each well and incubated for 1 h at RT with shaking at 300 rpm.

[5] = Skeletal muscle mass and Mss51 expression in lean mice; format: in vivo
Description: The effects of P1229 on body composition and metabolism in lean mice were further assessed.
Additional assays were performed to assess the relative expression level of Mss51, a skeletal muscle-specific gene. Mss51 is a key target of myostatin signaling, with a role in fatty acid oxidation, glycolysis, and oxidative phosphorylation.

[6] = Co-formulation study of ectodomain-based traps with incretin mimetics (monomer content by SEC / RP-HPLC, integrity, stability); format: physicochemical
Description: In each case, the following parameters were assessed: a) monomer content (size exclusion chromatography), b) activin A and GDF-8 neutralization (cell-based assays [CBAs]), c) activin A binding (ELISA), d) GLP-1 receptor binding (ELISA).
In each case, the following parameters were assessed: a) monomer content (size exclusion chromatography), b) activin A and GDF-8 neutralization (cell-based assays [CBAs]), and c) GLP-1 receptor activation (CBA).
Given that protein aggregation can be indicative of reduced conformational stability and decreased activity, Size-Exclusion Chromatography-High Performance Liquid Chromatography (SEC-HPLC) was used to determine the purity of each ActRIIB-ECD construct. This method measured the percentage of intact monomeric species as well as the presence of aggregates and/or degradation products.
In some instances, the method used to assess the purity of an agent was based on a reversed-phase high-performance liquid chromatography (RP-HPLC) setup with a C18 column. The mobile phases consisted of acetonitrile with 0.1% formic acid (organic phase) and water with 0.1% formic acid (aqueous phase). […] Formic acid anions form an ion pair with positively charged peptides, increasing their hydrophobicity and therefore their retention time. Detection was performed using a UV detector, at 280 nm.

activin A = biological target: T1, activin A (Homo sapiens, UniProt P08476); test: TGFβ-reporter HEK293 cell-based assay: activin A neutralization; details: for IC50: read-out: CBA Potency Activin A; for CBA potency Activin A, potency fold-change: relative to reference (P1372 = 1)
T1 sequence (P08476 311-426): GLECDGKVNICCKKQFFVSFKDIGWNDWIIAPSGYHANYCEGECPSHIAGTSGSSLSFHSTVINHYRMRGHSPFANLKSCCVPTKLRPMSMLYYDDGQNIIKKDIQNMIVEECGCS
Description: Potency testing by neutralization on cell-based assays. Characterization of the activin A, activin B, GDF-8, and GDF-11 inhibition potency (IC50) of the fusion proteins was performed using a cell-based reporter assay. TGFβ-reporter HEK293 cells were obtained from InvivoGen (San Diego, CA, cat. no. hkb-tgfb) and were maintained following the manufacturer's instructions. Briefly, cells were grown in high-glucose DMEM, containing 10% heat-inactivated FBS, 30 μg/mL blasticidin, 250 μg/mL hygromycin B, and 100 μg/mL zeocin (hereafter, “growth medium”). Once the cells reached 70-80% confluence, they were detached in growth medium by gently tapping on the flask. For all assays, cells were seeded in 96-well plates at a density of 20,000 cells per well in growth medium. Cells were left to attach for 10 minutes at room temperature (RT) prior to being transferred to a 37° C. incubator (5% CO2) overnight. The next day, treatments were prepared by combining the appropriate concentration of agent with activin A, activin B, GDF-8, or GDF-11 for 30 min at RT (shaking at 150 rpm). Treatments were conducted in high-glucose DMEM (serum-free and with no selection agents), and the final concentration of cytokine (ligand) was 0.3 nM. Growth medium was removed from the culture plates, and cells were treated with the appropriate mixes of fusion protein and cytokine. Treatment duration was for 18-22 h at 37° C. (5% CO2). All treatments were performed in technical duplicates and at least one or two independent experiments were conducted for each cytokine. At the end of the treatment period, supernatants were transferred to a new plate, and centrifuged at 300 RPM for 3 min. Forty microlitres of supernatant from each condition was transferred to a new plate, into which 180 μL of Quanti-Blue reagent (InvivoGen, cat. no. rep-qbs) was added. Quanti-Blue reagent was prepared following the manufacturer's instructions. Samples were incubated for 45 min at 37° C. At the end of the incubation, absorbance was read at 650 nm. The data were plotted in GraphPad Prism, which was used to calculate IC50 values as a non-linear regression.

[7] = DIO mice, 21 days, P1229 10 mg/kg twice weekly
[8] = DIO mice, 21 days, P1229 40 mg/kg twice weekly + calorie restriction
[9] = D 7 after storage at room temperature

With “P1229: hActRIIB L33W, 14 aa linker, IgG1-DL Fc; SEQ ID 211” the body weight [1] was “increased body weight”, the body weight gain [2] was “apparent body weight gain that did not reach statistical significance” and the “Body weight (% change from baseline)” value (DIO mice; DIO mice, 21 days s.c., P1307 20 mg/kg weekly, P1229 40 mg/kg twice weekly, semaglutide 40 μg/kg daily, tirzepatide 45 μg/kg daily, alone or combined) was “+11.1%”. The “Body weight (% change from baseline)” value (DIO mice; [7]) was “+7.7%”, the “Fat mass (% change from baseline)” value (DIO mice; [7]) was −1.6% and the “Lean mass (% change from baseline)” value (DIO mice; [7]) was “+10.6%”. The “Lean mass/fat mass ratio” value (DIO mice; [7]) was 1.4, the “Body weight (% change from baseline)” value (DIO mice; [8]) was −12.8% and the “Fat mass (% change from baseline)” value (DIO mice; [8]) was −33.7%. The “Lean mass (% change from baseline)” value (DIO mice; [8]) was “+3.5%”, the “Lean mass/fat mass ratio” value (DIO mice; [8]) was 1.9 and the “visceral, epididymal, pericardial, peri-renal, and retroperitoneal white adipose tissue weights” value (DIO mice; DIO mice, D21) was “not significantly affected”. The “white adipose tissue weights” value (DIO mice; DIO mice, D21, P1229 with caloric restriction) was “significantly decreased visceral, pericardial, and peri-renal (but not epididymal and retroperitoneal) white adipose tissue weights”, the “gastrocnemius and tibialis anterior weights” value (DIO mice; DIO mice, D21, P1229 with or without caloric restriction) was “significantly increased” and the “Fat mass (% change from baseline)” value (DIO mice; as E44, NMR) was “+2.7%”. For the same molecule, the “Lean mass (% change from baseline)” value (DIO mice; as E44, NMR) was “+15.1%”, the “Lean mass/fat mass ratio” value (DIO mice; as E44, NMR) was 1.3 and the “hepatic Ahsg expression” value [3] was “reduced Ahsg expression”. For the same molecule, the “hepatic Fgf21 expression” value [3] was “reduced”, the “Mss51 gene expression in gastrocnemius muscle” value ([3]; 3 weeks) was “reduced Mss51 gene expression” and the “ratio of lean mass to fat mass” value ([3]; 3 weeks) was “higher”. The “fat mass and lean mass (EchoMRI)” value ([3]; 3 weeks s.c., P75, P1229 25 mg/kg twice weekly, P1373 5, 20, 50 mg/kg twice weekly, P1307 20 mg/kg weekly) was “fat loss with concomitant lean mass gain”, the “PK profile alone versus in the co-formulation” value [4] was “comparable PK profile” and the “tibialis anterior and gastrocnemius weight” value ([5]; 25 mg/kg twice weekly, seven days) was “significantly increased”. For the same molecule, the “Mss51 expression in the tibialis muscle relative to vehicle” value ([5]; 5 or 25 mg/kg twice weekly, one week) was “dose-dependent decrease in Mss51 expression”.

B1: P1372: hActRIIB L33W, 14 aa linker, IgG1 YTE-DL Fc; SEQ ID 231 (protein)
chain: ETRECIYYNANWELERTNQSGLERCEGEQDKRWHCYASWRNSSGTIELVKKGCWLDDFNCYDRQECVATEENPQVYFCCCEGNFCNERFTHLPEAGGPEVTYEPPPTGGGGSGGGGSGGGGTHTCPPCPAPELLGGPSVFLFPPKPKDTLYITREPEVTCVVVDVSHEDPEVKFNWYVDGVEVHNAKTKPREEQYNSTYRVVSVLTVLHQDWLNGKEYKCKVSNKALPAPIEKTISKAKGQPREPQVYTLPPSRDELTKNQVSLTCLVKGFYPSDIAVEWESNGQPENNYKTTPPVLDSDGSFFLYSKLTVDKSRWQQGNVFSCSVMHEALHNHYTQKSLSLSPG
In the case of B1, the “Monomer content P1372” value ([6]; D 0, P1372 40 mg/mL, semaglutide […], pH 7.5) is reported as 99.3%, the “Monomer Content (%) P1372” value ([6]; D 0, P1372 40 mg/mL, tirzepatide 10 mg/mL, 10 mM NaPO4, 100 mM Glycine, 75 mM sucrose (pH 7.5)) is reported as 98.9% and the “Monomer Content (%) P1372” value ([6]; D 7, 2-8° C.) is reported as 98.9%. For the same molecule, the “Monomer Content (%) P1372” value ([6]; D 7, RT) was 98.8%, the “Monomer content P1372” value ([6]; D 7 after storage at 2-8° C.) was 99.3% and the “Monomer content P1372” value [6, 9] was 99.2%. The “Monomer Content (%) P1372” value ([6]; D 14, 2-8° C.) was 98.8%, the “Monomer Content (%) P1372” value ([6]; D 14, RT) was 97.9% and the “Monomer Content (%) P1372” value ([6]; D 28, 2-8° C.) was 98.9%. For the same molecule, the “Monomer Content (%) P1372” value ([6]; D 28, RT) was 98.6%, the “Monomer content P1372” value ([6]; D 28, storage at 2-8° C., 10 mM NaPO4, 100 mM glycine, 75 mM sucrose pH 7.5) was 99.2% and the “Monomer content P1372” value ([6]; D 28, storage at room temperature, 10 mM NaPO4, 100 mM glycine, 75 mM sucrose pH 7.5) was 98.8%. The “Monomer Content (%) P1372” value ([6]; D 56, 2-8° C.) was 98.8%, the “Monomer Content (%) P1372” value ([6]; D 56, RT) was 98.4% and the “CBA potency Activin A, fold-change vs reference” value (activin A; D 0) was 1 (ref). The IC50 (activin A; D 0) was 0.59 nM, the IC50 (activin A; D 7, 2-8° C.) was 0.81 nM and the IC50 (activin A; D 7, RT) was 0.78 nM. The “CBA potency Activin A, fold-change vs reference” value (activin A; D 7 after storage at 2-8° C.) was 1 (ref), the “CBA potency Activin A, fold-change vs reference” value (activin A; [9]) was 1 (ref) and the IC50 (activin A; D 14, 2-8° C.) was 0.63 nM. It also gave an IC50 (activin A; D 14, RT) of 0.74 nM, an IC50 (activin A; D 28, 2-8° C.) of 0.99 nM and an IC50 (activin A; D 28, RT) of 0.9 nM. For the same molecule, the “CBA potency Activin A, potency fold-change” value (activin A; D 28, storage at 2-8° C.) was 1 (ref) fold, the “CBA potency Activin A, potency fold-change” value (activin A; D 28, storage at room temperature) was 1 (ref) fold and the IC50 (activin A; D 56, RT) was 1.1 nM.
